# According to patent US20060239990:
# Assays:
# [1] = target: mouse STAT3 (endogenous in GT1-7 cells and VSMC, or expressed from mouse STAT3 pcDNA3 in HEK293 cells), P42227
# [2] = target: GST-Stat3 fusion protein, P42227
# [3] = target: GST-Stat3 Arg31→Ala31 [GST: P08515]
# Sequence of GST-Stat3 Arg31→Ala31 [GST: P08515] (P08515 whole entry, looked up): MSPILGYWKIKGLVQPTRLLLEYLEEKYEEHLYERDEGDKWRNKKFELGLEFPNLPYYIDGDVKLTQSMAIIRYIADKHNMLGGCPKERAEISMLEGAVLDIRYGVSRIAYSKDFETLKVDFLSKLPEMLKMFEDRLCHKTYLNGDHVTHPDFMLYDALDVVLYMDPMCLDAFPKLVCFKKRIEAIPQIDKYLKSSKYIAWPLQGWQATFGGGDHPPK
# Sequence of GST-Stat3 fusion protein, P42227 (P42227 whole entry, the tested form may be a part): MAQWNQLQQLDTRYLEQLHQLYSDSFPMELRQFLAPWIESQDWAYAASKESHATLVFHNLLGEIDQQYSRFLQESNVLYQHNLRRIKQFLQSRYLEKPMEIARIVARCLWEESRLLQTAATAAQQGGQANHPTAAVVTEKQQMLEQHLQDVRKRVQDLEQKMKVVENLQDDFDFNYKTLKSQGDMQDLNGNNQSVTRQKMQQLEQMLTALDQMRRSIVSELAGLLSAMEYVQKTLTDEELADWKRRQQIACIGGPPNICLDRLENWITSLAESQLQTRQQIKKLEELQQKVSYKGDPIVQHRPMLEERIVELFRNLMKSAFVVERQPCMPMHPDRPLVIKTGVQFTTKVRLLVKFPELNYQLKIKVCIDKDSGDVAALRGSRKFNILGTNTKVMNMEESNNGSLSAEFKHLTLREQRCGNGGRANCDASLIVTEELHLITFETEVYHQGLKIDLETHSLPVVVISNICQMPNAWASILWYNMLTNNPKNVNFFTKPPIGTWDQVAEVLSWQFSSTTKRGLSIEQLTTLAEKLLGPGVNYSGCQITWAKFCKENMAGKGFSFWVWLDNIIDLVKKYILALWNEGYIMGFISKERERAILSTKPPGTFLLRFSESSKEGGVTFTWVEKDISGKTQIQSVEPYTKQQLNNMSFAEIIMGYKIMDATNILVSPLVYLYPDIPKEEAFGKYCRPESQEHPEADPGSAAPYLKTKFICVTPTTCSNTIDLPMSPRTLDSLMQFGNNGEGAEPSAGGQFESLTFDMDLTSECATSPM
# Sequence of mouse STAT3 (endogenous in GT1-7 cells and VSMC, or expressed from mouse STAT3 pcDNA3 in HEK293 cells), P42227 (P42227 2-770): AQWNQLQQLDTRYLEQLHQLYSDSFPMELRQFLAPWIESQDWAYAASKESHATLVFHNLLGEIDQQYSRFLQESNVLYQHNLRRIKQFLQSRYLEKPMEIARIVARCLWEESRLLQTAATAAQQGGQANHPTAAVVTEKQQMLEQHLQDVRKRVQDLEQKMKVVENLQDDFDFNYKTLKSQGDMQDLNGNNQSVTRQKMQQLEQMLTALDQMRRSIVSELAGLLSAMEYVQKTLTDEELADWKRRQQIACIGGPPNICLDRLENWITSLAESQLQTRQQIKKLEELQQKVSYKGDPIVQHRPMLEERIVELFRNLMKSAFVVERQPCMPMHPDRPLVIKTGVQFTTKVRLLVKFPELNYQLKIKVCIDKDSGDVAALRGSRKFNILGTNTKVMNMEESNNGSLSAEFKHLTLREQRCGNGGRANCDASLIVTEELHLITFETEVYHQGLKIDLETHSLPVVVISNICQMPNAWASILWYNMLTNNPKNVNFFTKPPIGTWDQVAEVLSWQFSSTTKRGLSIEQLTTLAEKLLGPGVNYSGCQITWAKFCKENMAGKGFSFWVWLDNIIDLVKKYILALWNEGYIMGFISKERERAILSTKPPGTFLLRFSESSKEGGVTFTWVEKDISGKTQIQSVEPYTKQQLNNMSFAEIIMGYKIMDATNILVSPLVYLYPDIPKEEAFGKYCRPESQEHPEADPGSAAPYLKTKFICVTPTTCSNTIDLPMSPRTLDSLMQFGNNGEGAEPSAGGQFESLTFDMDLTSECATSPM
Protein,"leptin-induced Stat3 methylation in VSMC (anti-Stat3 immunoprecipitation, immunoblot with α-metR antibody) [1]","in vitro methylation with [3H]-AdoMet, MEF extracts as the enzyme source [2]","in vitro methylation with [3H]-AdoMet, MEF extracts as the enzyme source [3]",in vitro methylation with [3H]-AdoMet [2]
"mouse PRMT2 (untagged; endogenous in NIH3T3 cells, MEFs, GT1-7 cells and VSMC, or expressed from mouse PRMT2 cDNA in HEK293 cells) (protein) MEAPGEGPCSESQVIPVLEEDPVDYGCEMQLLQDGAQLQLQLQPEEFVAIADYTATDETQLSFLRGEKILILRQTTADWWWGERAGCCGYIPANHLGKQLEEYDPEDTWQDEEYFDSYGTLKLHLEMLADQPRTTKYHSVILQNKESLKDKVILDVGCGTGIISLFCAHHARPKAVYAVEASDMAQHTSQLVLQNGFADTITVFQQKVEDVVLPEKVDVLVSEWMGTCLLFEFMIESILYARDTWLKGDGIIWPTTAALHLVPCSAEKDYHSKVLFWDNAYEFNLSALKSLAIKEFFSRPKSNHILKPEDCLSEPCTILQLDMRTVQVPDLETMRGELRFDIQKAGTLHGFTAWFSVYFQSLEEGQPQQVVSTGPLHPTTHWKQTLFMMDDPVPVHTGDVVHGFCCVTKKSGMEKAHVCLSELGCHVRTRSHVSTELETGSFRSGGDS","leptin (100 nM) evoked a transient methylation of Stat3 at 10 min in wild-type VSMC (FIG. 22D, lane 2-5), whereas increased Stat3 methylation was not observed in PRMT2^-/- cells (FIG. 22D, lane 6-9)","Cell extracts from wild-type MEFs were also capable of methylating GST-Stat3, whereas cell extracts from PRMT2^-/- cells abolished Stat3 methylation (FIG. 20B, lanes 2 and 4)","This mutation resulted in substantially no methylation of Stat3 (FIG. 20B, lane 3)",
mouse PRMT2-Flag (FLAG-tagged full-length PRMT-2) (protein) MEAPGEGPCSESQVIPVLEEDPVDYGCEMQLLQDGAQLQLQLQPEEFVAIADYTATDETQLSFLRGEKILILRQTTADWWWGERAGCCGYIPANHLGKQLEEYDPEDTWQDEEYFDSYGTLKLHLEMLADQPRTTKYHSVILQNKESLKDKVILDVGCGTGIISLFCAHHARPKAVYAVEASDMAQHTSQLVLQNGFADTITVFQQKVEDVVLPEKVDVLVSEWMGTCLLFEFMIESILYARDTWLKGDGIIWPTTAALHLVPCSAEKDYHSKVLFWDNAYEFNLSALKSLAIKEFFSRPKSNHILKPEDCLSEPCTILQLDMRTVQVPDLETMRGELRFDIQKAGTLHGFTAWFSVYFQSLEEGQPQQVVSTGPLHPTTHWKQTLFMMDDPVPVHTGDVVHGFCCVTKKSGMEKAHVCLSELGCHVRTRSHVSTELETGSFRSGGDS,,,,Flag fusion protein from the cells transfected wild-type PRMT2-Flag cDNA could methylate GST-Stat3
